Laboratory results published in patent US20240059763A1 (ZHUHAI TRINOMAB PHARMACEUTICAL, published 2024).

Assays:
[1] = target: T1, RSV Pre-F protein (pre-fusion conformation of the F protein of RSV A2 strain) (RSV A2 strain, UniProt P03420 26-513); experiment: SPR (Biacore X100), TRN1021 captured on anti-human IgG (Fc), Pre-F as analyte at 2.5-40 µg/mL
T1 construct: Recombinant trimeric protein; also called pre-fusion F protein; antigen Pre-F protein

[2] = target: T1, RSV Pre-F protein (pre-fusion …); experiment: ELISA, RSV Pre-F coated on the plate, TRN1021 in 3-fold dilutions, anti-human IgG-HRP, OD450

T1 sequence (P03420 26-513): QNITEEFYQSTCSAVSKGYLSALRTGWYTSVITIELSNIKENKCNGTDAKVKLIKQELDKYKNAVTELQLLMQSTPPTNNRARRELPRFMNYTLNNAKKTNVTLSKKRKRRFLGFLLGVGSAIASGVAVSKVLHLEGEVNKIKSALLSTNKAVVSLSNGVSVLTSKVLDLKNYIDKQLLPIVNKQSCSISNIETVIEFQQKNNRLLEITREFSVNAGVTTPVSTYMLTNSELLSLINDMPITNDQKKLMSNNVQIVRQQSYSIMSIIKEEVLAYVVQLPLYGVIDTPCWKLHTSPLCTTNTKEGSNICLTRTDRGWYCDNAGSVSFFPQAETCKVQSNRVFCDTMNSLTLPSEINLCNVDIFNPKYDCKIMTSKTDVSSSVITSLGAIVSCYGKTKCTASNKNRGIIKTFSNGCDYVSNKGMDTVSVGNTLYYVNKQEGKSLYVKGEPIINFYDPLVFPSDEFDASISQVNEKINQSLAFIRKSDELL

B1: fully human anti-RSV monoclonal antibody TRN1021 (antibody, V domains shown)
VH: QVQLVQSGAEVKKPGESLKISCQGSGYSFNNYYIGWVRQMPGKGLEWMVIIYPGDSDTKYSPSFQGQVTVSADRSINTAYLQWSSLRASDTAVYYCVRMDTVTTGAGVGFNWFFDLWGRGTLVTVSS
VL: EIVLTQSPATLSVSPGERATLSCRASQSVTSYLAWYQQKPGQAPRLLIYGASSRATGVPARFSGSGSETEFTLTISSLQSEDFAVYYCQQYNDWPAITFGQGTRLENK
notes: It was expressed in HEK293 cells as a whole human antibody, purified on Protein A, detected with anti-human IgG and captured through anti-human IgG (Fc); also called fully human anti-RSV-F protein monoclonal antibody TRN1021
Kd [1]: ~1 nM
EC50 (read off the curve) [2]: ~8 ng/mL
